Patent US7297332B2, “Protease, a gene therefor and the use thereof” (Korean Research Institute of Bioscience and Biotechnology, priority 2000, dated 2007)

Legend:
azocasein [1] = test: Effects of salts on the activity of the protease; type: biochemical; settings: for relative activity: 37° C., 4 hours
Procedure: (§1) Enzyme activity of the protease was measured according to the method described by Braun & Shmitz (Braun, V. & Schmitz, G., Arch. Microbiol. 124, 55-61, 1980). A substrate solution was prepared by dissolving 0.24 g of azocasein in 10 ml of 50 mM phosphate buffer (pH 7.5). The 300 □ of the substrate solution was mixed with 100 □ of bacterial culture solution and reacted at 37° C. for 30 minutes. Then, 300 □ of 10% trichloride acetate was added to the reaction solution and incubated at ambient temperature for 1 hour. The reaction solution was centrifuged at 7,000 rpm until pellet and supernatant was separated substantially. After adding 30 0 of 10% sodium hydroxide (NaOH) to the supernatant, the absorbance was measured at 420 nm. The enzymatic titer was defined as 1 unit by the 1.0 fold increment of absorbance value.
In order to examine effects of salts on the activity of protease, the relative enzyme activity was measured at 37° C. for 4 hours in the presence of various concentrations of sodium chloride solution ranging from 0 to 1700 mM. The relative activity was measured according to the method described in Example 3(1). For comparison, the protease derived from Serratia marcescens SM6 was used as a control.

azocasein [2] = test: Effect of pH on the activity and stability of the protease; type: biochemical; settings: for relative activity: 30 minutes
Procedure: as §1
In order to examine the pH-dependence of the protease of the invention, the inventors prepared various substrate solution with different pH. The each substrate solution was buffered with citrate-phosphate(pH 3.0 to 7.0), sodium phosphate(pH 7.0 to 9.0), Tris-HCl(pH 7.0 to 10.0), and glysine-caustic soda(pH 9.0 to 12.0), respectively. The relative protease activity was measured after mixing enzyme with each of the above substrate solution at 37° C. for 30 minutes. The measurement of the relative protease activity was followed by the method described in Example 3(1).

[3] = Protein eluted from raw skin (leather deliming application); settings: 0.5% of protease
Procedure: A 20 g of raw skin finely cut into pieces of suitable size and 14 ml of distilled water was mixed in a 50 ml test tube. Then, 0.5% sodium bisulfite and 0.5% ammonium sulfate on the basis of the weight of skin was added thereto and the mixture was incubated for 15 minutes at 26° C. Subsequently, 0.2% of detergent and 0.5% of deliming agent was added thereto and waited for 30 minutes and 1 hour, respectively, before measuring the amount of protein eluted from the skin. In the presence of the 0.5% of protease, the protein eluted amounted to 1054 mg/ml and 1062 mg/ml after 30 minutes and 60 minutes, respectively. In the absence of the protease, the protein eluted amounted to 304.5 mg/ml and 329.5 mg/ml after 30 minute and 60 minutes, respectively.

[4] = tested on: albumin, casein, collagen, elastin and hemoglobin; test: Activity of the protease on various substrates; type: biochemical; settings: all the other substrates including hemoglobin
Procedure: In order to examine the degrading ability of the enzyme against various substrates, the enzyme reactions were performed on substrates such as albumin, casein, collagen, elastin and hemoglobin. […] In 24 hour reaction, all the other substrates including hemoglobin achieved at least 45.

azocasein [5] = test: Effect of heat on the activity and stability of the protease; type: biochemical
Procedure: as §1
In order to examine the effect of heat on the activity and stability of the protease, the relative enzyme activity was measured at temperatures ranging from 4° C. to 80° C. The measurement of the activity was performed according to the method described in Example 3(1).

B1: protease: zinc-binding metalloprotease from Aranicola proteolyticus HY-3, amino acid sequence SEQ ID NO. 1, apparent molecular weight about 51.5 kDa (protein, listed as Aranicola proteolyticus)
chain: MQSTKKAIEITESSLAAASSAYNAVDDLLHYHERGNGIQVNGKDSFSTEQAGLFITRENQTWNGYKVFGQPVKLTFSFPDYKFSSTNVAGDTGLSKFSAEQQQQAKLSLQSWSDVANITFTEVGAGQKANITFGNYSQDRPGHYDYDTQAYAFLPNTIYQGQNLGGQTWYNVNQSNVKHPASEDYGRQTFTHEIGHALGLSHPGDYNAGEGNPTYRDASYAEDTREFSLMSYWSETNTGGDNGGHYAAAPLLDDISAIQHLYGANQTTRTGDTVYGFNSNTGRDFLSTTSNPQKVIFAAWDAGGNDTFDFSGYTANQRINLNEKSFSDVGGLKGNVSIAAGVTIENAIGGSGNDVIVGNAANNVLKGGAGNDVLFGGGGADELWGGAGKDTFVFSAVSDSAPGASDWIKDFQKGIDKIDLSFFNQGAQGGDQIHFVDHFSGAAGEALLSYNASNNVSDLALNIGGHQAPDILVKIVGQVDVATDFIV
modifications: BINDING (192) Zn binding site
notes: 1, apparent molecular weight about 51.5 kDa
Azocasein [1]; high salt concentrations
  activity under high salt concentrations: retains high activity
Azocasein [1]; salt concentration 0 mM NaCl
  relative activity: 100%
Azocasein [1]; salt concentration 170 mM NaCl
  relative activity: 134%
Azocasein [1]; salt concentration 340 mM NaCl
  relative activity: 173%
Azocasein [1]; salt concentration 510 mM NaCl
  relative activity: 200%
Azocasein [1]; salt concentration 680 mM NaCl
  relative activity: 215%
Azocasein [1]; salt concentration 1020 mM NaCl
  relative activity: 203%
Azocasein [1]; salt concentration 1360 mM NaCl
  relative activity: 196%
Azocasein [1]; salt concentration 1700 mM NaCl
  relative activity: 155%
Azocasein [2]; azocasein substrate
  pH of maximum activity: 8.0
Azocasein [2]; pH 3.0, 37° C.
  relative activity: 43%
Azocasein [2]; pH 4.0, 37° C.
  relative activity: 66%
Azocasein [2]; pH 5.0, 37° C.
  relative activity: 73%
Azocasein [2]; pH 5.5, 37° C.
  relative activity: 77%
Azocasein [2]; pH 6.0, 37° C.
  relative activity: 79%
Azocasein [2]; pH 7.0, 37° C.
  relative activity: 81%
Azocasein [2]; pH 7.5, 37° C.
  relative activity: 83%
Azocasein [2]; pH 8.0, 37° C.
  relative activity: 100%
Azocasein [2]; pH 8.5, 37° C.
  relative activity: 99%
Azocasein [2]; pH 9.0, 37° C.
  relative activity: 90%
Azocasein [2]; pH 9.5, 37° C.
  relative activity: 80%
Azocasein [2]; pH 10.0, 37° C.
  relative activity: 78%
Azocasein [2]; pH 11.0, 37° C.
  relative activity: 76%
Azocasein [2]; pH 12.0, 37° C.
  relative activity: 71%
Azocasein [2]; pH of 5.0 to 12.0
  activity relative to maximum activity: at least 70%
[3]; after 30 minutes
  protein eluted from the skin: 1050 µg/mL
[3]; after 60 minutes
  protein eluted from the skin: 1060 µg/mL
[4]
  degrading ability (albumin in 24 hour reaction defined as 100): at least 45
Azocasein [5]; 4° C. to 15° C., relative to maximum activity
  activity maintained at low temperature: about a half of the maximum activity
Azocasein [5]; measured from 4° C. to 80° C.
  temperature of maximum activity: 37 °C
Azocasein [5]; temperature 4 ° C.
  relative activity: 43%
Azocasein [5]; temperature 10 ° C.
  relative activity: 45%
Azocasein [5]; temperature 15 ° C.
  relative activity: 50%
Azocasein [5]; temperature 20 ° C.
  relative activity: 76%
Azocasein [5]; temperature 25 ° C.
  relative activity: 81%
Azocasein [5]; temperature 30 ° C.
  relative activity: 93%
Azocasein [5]; temperature 37 ° C.
  relative activity: 100%
Azocasein [5]; temperature 45 ° C.
  relative activity: 28%
Azocasein [5]; temperature 50 ° C.
  relative activity: 22%
Azocasein [5]; temperature 60 ° C.
  relative activity: 20%
Azocasein [5]; temperature 70 ° C.
  relative activity: 14%
Azocasein [5]; temperature 80 ° C.
  relative activity: 3%
Azocasein [5]; temperatures between 4° C. and 37° C.
  Ea value (hydrolysis of azocasein), activation energy in Arrenius plot: 2.43 kcal/mol
Azocasein [5]; temperatures between 20° C. to 40° C.
  relative activity: at least 75%
